Assay results taken from the nanobody polyreactivity screen of Harvey et al. (2022).

Assay: yeast display, Sf9 membrane polyspecificity reagent, FACS + sequencing; frameworks hold sequencing errors
Summary of the method: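 After 36–48 hours of galactose induction, yeast (Saccharomyces cerevisiae BJ5465) displaying a synthetic nanobody library were stained at 4 °C for 1 hour with 10% biotinylated, detergent-solubilized Sf9 membrane reagent. Streptavidin microbeads enriched the stained cells before FACS sorting into low and high (top ~1%) gates on anti-HA and streptavidin fluorescence. Each clone's polyreactivity label reflects its gate of origin.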

Sequence	polyreactivity (PSR sort gate)
QVQLVESGGGLLQEGGSLRLSCAASGRTFYYYTMGWYRQAPGIERELVAAITHGGSTYYADSVKGRFTISRDNAKNTVYLQMNSLTPEDTAVYYCNAVYHYPYEYWGHGTQVTVSS	high polyreactivity
QVQLVESGGGLVQAGGSLRLSCAASGFTIGRYTMGWYRQAPGKERELVAAISWSGGSTYYADSVKGRFTISRDNAKNTVYLQMNSLKPEDTAVYYCAKVFRGGRGDYWGQGTQVTVSS	high polyreactivity
QVQLVESGGGLVQAGGSLRLSCAASGRIFGWYAMGWYRQAPGKERELVAAISNDGSTNYADSVKGRFTISRDNAKNTVYLQMNSLKPEDTAVYYCAARFYRSSYGWYGYWGQGTQVTVSS	high polyreactivity
HVQLVESGVGLVQAGGSLRLSCAASGSTFDGYLMGWYRQAPGKERELVAAISRSGGSTYYADSVKGRFTIARDNAKNTVYLQMNSLKPEDTAVYYCAARNSPGLPGDYWGQGTQVTVSS	high polyreactivity
QVQLVESGGGLVQAGGSLRLSCAASGSIFSSYAMGWYRQAPGKERELVAAITSGGSTYYADSVKGRFTISRDNAKNNVYLQMNSLKPEDTAVYYCAARQVRTSKLHMGYWGQGTQVTVSS	low polyreactivity
QVQLVESGGVLVQAGGSLRLSCAASGRTYGTYAMGWYRQAPGKERELVAGINGSGGSTYYADSVKGRFTISRDNAKNTVFLQMNSLKPEDTAVYYCYKYGRRPYGLRGYWGEGTQVTVSS	high polyreactivity
QVQLVESGGGLVQAGGSLRLLCAASGFTFGFNAMGWYRQAPGKERELVAAISRGGSTNYADSVKGLFTISRDNAKNTVYLQMNSLKPEDTAVYYCAADVITYVFRFYYWGQGTQVTVSS	low polyreactivity
QVQLVESGGGLVQAGGSLRLSCAASVRIFRGNDMGWYRKAPGKERELVARITGNDGDTYYADSVKGRFTISRDNAKNTVYLQMNSLKPEDTAVYYCATDTSSYRRRYYYWGQGTQVTVSS	low polyreactivity
PVQLVESGGGLVQAGGSLRLSCADSGSIFRKYARGWYRQAPGKERELVAAITYGGSSTYYADSVKGRFTISRDNAKKTVYLQRNSLKPQDTAVYYFINDRPSYPAYGHTQYVVQMDYWGQGTQVTVSS	low polyreactivity
QVQLVESGGGLVQAGGSLRLSCAASGSIFDYTAMGWYRQAPGKERELVASIRWSGGRTYYADSVKGRFTISRDNAKNTVYLQMNSLKPEDTAVYYCNRKPQEYVLQGSSNGYDYWGQGTQVTVSS	low polyreactivity
QVQLVESGGGLVQARGSLRLSCAASGSTLTRNALGWYRQAPGKERELVAAITQRGGSTYYADSVKGRFTISRDNGKNTVYFQMNSLKPEDTAVYYCAKVPSVKYRSIWVLPEYGWGQGTQVTVSS	high polyreactivity
QVQLVESGGGLVQAGGSLRLSCAASGGIFVSYAMGWYRQAPGKERELVAAITSGGGTSYADSVKGRFTISRDNAKNTVYLQLTSLKPEDTAVYYCAARFLWSVFGRKGGYWGQGTQVTVSS	low polyreactivity
QVQLVESGGRLVQAGGSLRLSCSASGLTFQYYAMGWYRQAPGKERELVATINSGGSTKYADSVKGRFTISRDNAKNTVYLQMNRLKPEDTAVYYCAADPYRRYRRPSRYGYWGQGTQVTVSS	high polyreactivity
QVQIVESGGGLVQAGGSLRLICAASGRILSANAMGWYRQAPGKERELVAAITYSGDNTYYADYVKGRFTISRDNANNTVYLQMNSLKPEDTAVYYCAREFQVDGGEEDYWGQGTQVTVSS	low polyreactivity
QVQLVESGGGLVQAGGSLSLSCAASGITFYGYAMGWYRQAHGKERELVATIRRSTGSTYYADSVKGRFTISRDNAMNTVYLQMNSLKPEDTAVYYCATRVWFPITSYDYWGQGTKVTVSS	low polyreactivity
QVQLVESGGGLVQAGGSLRLSCAASGSTFEDNTMGWYRQAPGKERELVAAISNSGGSTYYADSVKGRFTISRDNAKNTVYLQMNSLKPEDTAVYYCAADFYDPFDYWGQGTQVTVSS	low polyreactivity
QVQLVESGVGLVQAGGSLRLICADSGSIFSQYAMGGYRPAPGKERELVAAISKNGGSTYYADSVKGRFTISRDNAKNTVYSQMNSLKPEDTAVYYCAARVLKGYYWGQGTQVTVSS	high polyreactivity
QVQLVESGGGLVQAGGSLRLSCAASGFTFSRYAMGWYRQAPGKERELVAAITRRGGRTYYADSVKGRFTISRDNAKNTVFLQMNSLKPEDTAVYYCITDAYRLGYDYWGQGTQVTVSS	high polyreactivity
QFQLVESGGGLVQAGGSLRLSCAASGRIFGIYAMGWDRQAPGKESELVATITDSDDSTYYADSVKGRFTISRDNAKNTVYLQMNSLKPEDTAVYYCATAFSYGGGAYDYWGQGTQVTVSS	low polyreactivity
QVQLQESGGGLVQAGGSLRLSCAASGSISGPHLMGWYRQAPGQEREFVAAINVGANTYYADNVKGRFTISRDNAKNTLYLQMNSLKPEDTAVYYCAAVYYGDIGHEYWGQGTQVTVSC	low polyreactivity
QVQLVESGGGLVQAGGSLRISCAASGATFYYYAMGWYRQAPGKERELVASTYYADSVKGRFSISRDNAKNTVYLQMKSLKPEDTAVYYCAKRFKATYEYDYWGQGTQVTVSS	low polyreactivity
QVQLVESGRGLVQEGGSLRLSCAASGSTFEPYAMGWYRQAPGKERELVAAITLTAGSTYYADSVKGRFTISRDNAKNTVYLQRNSLKPEDTAVYYCAAEFWLVEDDYWGQGTQVTVSS	low polyreactivity

Sequence	polyreactivity (PSR sort gate)
QVQLVESGGGLVQAGGSLRLSCAASGRIRVQNDMGWYRQAPGKERELVAAIRSDGSPSYSDSVKGRFTISRDNAKNTVYLQMNSLKPEDTAVYYCAARIDWTGGEYDYWGQGTQVTVSS	low polyreactivity
QVQLVESGGGLVQAGGSLRLSCADSGFTFFSNAMGWYRQAPGKERELVAAITSSGRSTYADSVKGRYTISRDKAKNTVYLQMNSLKPEDSAVYYCAARRTGYLYRYGYWGQGTQVTVSS	low polyreactivity
QDQLVESAGGLVQAGGSLRLSCAASGSIFTSNAMGWYRQAPGKETELVAAITSSGGSTYYADSVKGRFTISRDNAKNTVYVQMNSLKPEVTAVYYCAGAKFDLSFWLYYWGQGTQVTVSS	low polyreactivity
QVQIVESGGGLVQAGGSLRLSCAASGITFYGYAMGWYRQAPGKERELVAVITSSRSSTYYADSVKGRFTISRDNAKNTFFLQMNSLKPEDTEVYYCNPRPGRRSLRSRTYDYWGQGTQVTVSS	high polyreactivity
QVQLVESGGGLVQAGGSLRLSCAASGRTFKWNAMGWYRPAPGKERELVAAISISAGSTYYADSVKGRFTISRDNAKKTVYLQMNSLKPEDTAVYYCNTKYVRFYSRMDSWGQGTQVTVSS	low polyreactivity
QVQLVESGGGLVQAGGSLRLSCAASGGTFARNALGWYRQAPGKERELVAAIRGGVSTNYADSVKGRFTISRDNAKNTVYLQMNSLKPEDTAVYYCNASPPTLEGYWGQGTQVTVSS	low polyreactivity
QVQLVESGGCLVQAGGSLRLSCAATGFIFYPDAKGWYRQAPGTEMELVAVITSGGRTYYADSVKGRFTITRDNAKNTVYLQMNSLKPEDTAVYYCAALYLGLWPTDIFDYWGQGTQVTVSS	low polyreactivity
QVQLVESGGGLVQAGGSLRLRCAASGSIFGPNALGWYRQAAGKERELVAAISSGGSTNYADSVKGRFTISRDNAKNTVYLQMNSLKPEDTAVYYCAKDNYLDPPYFYRFAGYDYRGQGTQVTVSS	low polyreactivity
QVQLVESGGGLVQAGGSLRLSCAASGFILSFYTMGWYRQEPGKERELVAVISSRGGRTYYADSVKGRFTISRDNAKNTVYLQMNSLKPEDTAVYYCNKRYYFPKPFDYWGQGTQVTVSS	high polyreactivity
QVQLVESGGGLVQAGGSLRLSCAASGSTFGTNAMGWYRQAPGKERELVAAITRGGNTYYADSVKGRFTISRDNAKNTVYLQMNSLKTEDTAVYYCNTYTRASRFDYWGQGTQVTVSS	high polyreactivity
QVQLVESGGGLDQAGGSLRLSCAASGSTFVLNAMGWYRQAPGKERDLVAAITSNGGRTYYADSVKGRFTISRDNAKNTVYLQMNSLKPEDTAVYYCNAVKTHRVRVHGWDYGYWGQGTQVTVSS	high polyreactivity
QVQLVDSGGGLVQAGGSLRLSCAASGRTFDVYTMGWYRQAPGKERELVAAINGGGSTYYADSVKGRFTISRDNAKNTVYLQMNTLKPEDTAVYYCAAKLRAGRSSYYWGQGTQVTVSS	high polyreactivity
QVQLVESGGGLVQAGGSLRLSCAAYGRTFTTNAMGWYRQAPGKERELVAAISRLGGSTYYADSVKGRFTISRDNAKNTVYLQMNSLKPEDTAVYYCYAHLWIRGYDYWGQGTQVTVSS	high polyreactivity
QVQLVESGGGLVQAGGSLRLSCAASGSTFYGYTMGWYRQAPGKERELVAAISSSGSSTYYADSVKGRFTISRDNAKNTVYLQMNSLKPEDTAVYYCAAATRVPGHGSTSYYYWGQGTQVTVSS	high polyreactivity
QVQLVESGGGLVQAGGSLRLSCAASGIIFFIYAMGWYRQAPGKERELVATISWTGGSTYYADSVKGRFTISRDNAKNTVYLQMNSLKPEDTAVYYCNADEWRWDEIIPYAVDYWGQGTQVTVSS	low polyreactivity
QVQLVESGGGLVQAGGSLRLSCSASGSTFTYYAIGWYRTAPGEERELGAAISWRGTSTYYADSVKGRFTISRDNAKNSVYLQMNSLKTEETAVYSCAGRGLWPYDYWGQGTQVTVSS	low polyreactivity
QVQLVESGGGLVQAGGSLRLSCAASGSIFRHYTMGWYRQAPGKERELVAVISSGGNTNYADSVKGLFTISRDNAKYTDYLQLNSLKPEDTAVYYCAAGGYDVYHDPYYYWGQGTQVTVSS	high polyreactivity
QVQLVESGGGLVQAGGSLRLSCAASGSIFDRNAMGWYRQAPGKERELVATITWSGVSTYYADSVKGRFTISRDNAKNTVYLQMNSLKPEDTAVYYCNADYSYRHWYDPGQYGQAMGYWGLGTQVTVSS	low polyreactivity
QVQLVESGGGLVQAGGSLRLSCAASGSTFSQNAMGWYRQAPGKERELVDAITSGGITYYADSVKGRFTISRDNAKNTVYLQMNSLKPEDTAVYYCNADAIVSPYRLWTVTYYYWGQGTQVTVSS	low polyreactivity
QVQLVESGGGLVQAGGILRLSCASSGFTFSLYDMGWYRQAPRKDRELVADINGSGGSTYYADSVKGRFTISRDNAKNTVYLQLNILKPEDTAVYYCAAGPPSRWWYIVDYGYWGQGTQVTVSS	high polyreactivity
QVQLVESGGGLVQAGGSLRLSCAASGRIFGLYAMGWYRQAPGKERELVAAISRRGGTTYYADSVKGRFTISRDNAKNTVYLQMNSLKPEDTAVYYCAAATVYLSWYYWGQGTQVTVSS	high polyreactivity
